Positions count from the first letter of the chain named.
Key:
[1] = biological target: T1, NB1202 (N276A) (human, UniProt Q15063 22-631, limits assumed); test: ELISA on alanine variants of POSTN EMI-FAS4, second screen
T1 construct: also called POSTN EMI-FAS4 N276A
T1 sequence: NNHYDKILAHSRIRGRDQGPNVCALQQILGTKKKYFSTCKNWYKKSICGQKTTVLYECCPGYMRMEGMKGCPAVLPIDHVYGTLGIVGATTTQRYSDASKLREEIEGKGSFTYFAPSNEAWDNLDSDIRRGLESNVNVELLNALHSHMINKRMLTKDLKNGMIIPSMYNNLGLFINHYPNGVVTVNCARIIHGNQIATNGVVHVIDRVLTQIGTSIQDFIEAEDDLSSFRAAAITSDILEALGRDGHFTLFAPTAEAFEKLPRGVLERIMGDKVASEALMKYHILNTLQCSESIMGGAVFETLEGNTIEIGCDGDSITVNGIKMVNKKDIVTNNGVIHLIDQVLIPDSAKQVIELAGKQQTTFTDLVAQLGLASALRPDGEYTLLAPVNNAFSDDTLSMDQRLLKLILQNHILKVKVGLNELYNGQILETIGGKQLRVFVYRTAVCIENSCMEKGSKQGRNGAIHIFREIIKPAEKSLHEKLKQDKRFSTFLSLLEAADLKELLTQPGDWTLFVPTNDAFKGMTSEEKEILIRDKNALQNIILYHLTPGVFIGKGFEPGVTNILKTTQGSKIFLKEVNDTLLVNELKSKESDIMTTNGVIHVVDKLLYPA

[2] = biological target: T2, NB1243 (L287A) (human, UniProt Q15063 22-631, limits assumed); test: as above
T2 construct: also called POSTN EMI-FAS4 L287A
T2 sequence: T1 sequence with A255N, L266A

[3] = biological target: T3, NB1248 (K302A) (human, UniProt Q15063 22-631, limits assumed); test: as above
T3 construct: also called POSTN EMI-FAS4 K302A
T3 sequence: T1 sequence with A255N, K281A

[4] = biological target: T4, recombinant rat periostin (rat, UniProt A0A8I6AHK0 24-838); test: BLI (Octet Red); Table 6 ties the high end of the range to rat periostin
T4 construct: also called RatPOSTN
Description: NB0828's binding affinity was determined across human, mouse, rat, and cyno species. NB0828 affinities were determined using the octet red system. Briefly, anti-human Fc (AHC) biosensors were used to capture NB0828, followed by association of titrating amounts of either recombinant human, mouse, rat, or cyno periostin (100 nM→0 nM; 1:2 dilutions). Recombinant human, mouse, and rat periostin was purchased commercially from R&D systems, whereas cyno periostin was made internally.

B1: NB0828 (antibody, V domains shown)
VH: QVQLVQSGAEVKKPGASVKVSCKASGYTFTSYGISWVRQAPGQGLEWMGWISAYNGNTNYAQKLQGRVTMTTDTSTSTAYMELRSLRSDDTAVYYCARDMLVVPFDYWGQGTLVTVSS
VL: QSVLTQSSSASGTPGQTVTVSCSGSSSDIGSNRVNWYQQLPGTAPKLLIYSNDQRPSGVPDRFSGSKSGTSASLAISGLQSADEADYYCAAWDDSLSTYVFGSGTKVTVL
- loss from the max signal [1]: > 50%
- loss from the max signal [2]: > 50%
- loss from the max signal [3]: > 50%
- Kd [4]: 0.5 nM

From US20220010003A1 (Boehringer Ingelheim, published 2022)
